Entries after “also recorded” stand apart in the source; their conditions may differ. Where a SMILES comes first, the peptide text is derived from it. The star is where a group is joined. Cbz = O=C(OCc1ccccc1)*
What was measured:
[1] = system: rat neonatal cardiomyocytes; assay: BVR, HO-2 and HO-1 protein levels in rat neonatal cardiomyocytes (western blot); type: cell-based; conditions: for HO-2 protein level: MG132 50 μg/ml; for effect on isoproterenol-induced BVR protein expression / effect on isoproterenol-induced HO-2 protein expression: 10 μM isoproterenol, western blot
Procedure: Neonatal Rat Cardiomyocytes: Primary cultures of neonatal rat cardiomyocytes were prepared as described previously (Ding et al., “Functional Role of Phosphodiesterase 3 in Cardiomyocyte Apoptosis: Implication in Heart Failure,” Circulation 111:2469-2476 (2005) which is hereby incorporated by reference in its entirety). Briefly, fragmented ventricular tissue from 1-2 day old Sprague-Dawley rats was subjected to multiple rounds of enzymatic digestion with collagenase II (Worthington, Lakewood, N.J.). The cells were then collected by low speed centrifugation at 4° C. Non-myocytes were removed by two rounds of pre-plating the cells on culture dishes. The enriched cardiomyocytes were cultured in DMEM with 10% FBS and 10% horse serum. The day after cell adhesion, 10 μM cytosine 1-β-D-arabinofuranoside (Sigma, St. Louis, Mo.) was added to inhibit the growth of contaminating non-myocytes.
Plasmids and Constructs: Adenovirus for expression of an endogenous PKA inhibitor (PKA251 bp) was prepared as described previously (Ding et al., “Functional Role of Phosphodiesterase 3 in Cardiomyocyte Apoptosis: Implication in Heart Failure,” Circulation 111:2469-2476 (2005), which is hereby incorporated by reference in its entirety). Rat BVR and HO-2 siRNA were designed based on the human sequences (Miralem et al., “Small Interference RNA-Mediated Gene Silencing of Human Biliverdin Reductase, but not that of Heme Oxygenase-1, Attenuates Arsenite-Mediated Induction of the Oxygenase and Increases Apoptosis in 293A Kidney Cells,” J Biol Chem 280:17084-17092 (2005), which is hereby incorporated by reference in its entirety). The BVR targeting site is at nucleotides 94-114, and the HO-2 targeting site is at nucleotides 73-93, downstream of the start codon in each case. Oligonucleotides containing the sequence of a 21 nucleotide small interference RNA were synthesized as follows: BVR siRNA, 5′-GATCCCC ([…]) TTCAAGAG ([…]) TTTTTGGAAA (SEQ ID NO:61) and 5′-AGCTTTTCCAAAAA ([…]) TCTCTTGAA ([…]) GGG (SEQ ID NO:62; HO-2 siRNA, 5′-GATCCCC ([…]) TTCAAGAGA ([…]) TTTTTGGAAA (SEQ ID NO:63) and 3′-AGCTTTTCCAAAAA ([…]) TCTCTTGAA ([…]) GGG (SEQ ID NO:64). Complementary oligonucleotides were annealed, then ligated into pSuper-Retro vector (OligoEngine Co. Seattle, Wash.). E. coli clones containing the desired constructs were identified by restriction analysis and verified by DNA sequencing. The retroviral DNA vectors for generating BVR si-rRNA and […] were transfected into the HEK293A packaging cell line, and the supernatant containing the expressed si-rBVR or si-rHO-2 retrovirus was then titrated in NIH3T3 cells. Retrovirus expressing siRNA was used to infect cells at a multiplicity of infection of 4 plaque-forming units/cell. The plasmid pcDNA-hBVR has previously been described (Lerner-Marmarosh et al., “Human Biliverdin Reductase: A Member of the Insulin Receptor Substrate Family with Serine/Threonine/Tyrosine Kinase Activity,” Proc Natl Acad Sci US A 102:7109-7114 (2005), which is hereby incorporated by reference in its entirety); pcDNA-hHO2 was constructed by cloning the HO-2 open reading frame into pcDNA3. […]

[2] = target: T1, hBVR-derived peptide KKRILHC^281
T1 chain: KKRILHC

[3] = target: T2, hBVR-derived peptide KYCCSRK^296
T2 chain: KYCCSRK

[4] = system: rat neonatal cardiomyocytes; assay: Apoptosis of cardiomyocytes (cleaved caspase-3, TUNEL, DNA electrophoresis); type: cell-based; conditions: for DNA fragmentation by electrophoresis of genomic DNA: ISO treatment coupled with siRNA; for number of cardiac apoptotic cells (TUNEL): siRNA followed by isoproterenol, relative to absence of ISO stimulation; for level of cleaved caspase-3 protein: with 10 μM isoproterenol, 24 hours
Procedure: Western Blot Analysis: Cell lysates were prepared by homogenization in RIPA buffer (40 mM Tris-HCl, pH 7.5, 1 mM EDTA, 1 mM DTT, 0.1 mM Na3VO4, 10 μg/ml aprotinin, 5 μg/ml pepstatin, 20 μg/ml leupeptin, 1 mM bezamidine followed by centrifugation at 800×g for 10 minutes at 4° C. (Ding et al., “Functional Role of Phosphodiesterase 3 in Cardiomyocyte Apoptosis: Implication in Heart Failure,” Circulation 111:2469-2476 (2005), which is hereby incorporated by reference in its entirety). Supernatant proteins were resolved by SDS-PAGE and transferred to nitrocellulose. Western blots were examined using antibodies against β-actin (Cell Signaling), BVR (Huang et al., “Detection of 10 Variants of Biliverdin Reductase in Rat Liver by Two-Dimensional Gel Electrophoresis,” J Biol Chem 264:7844-7849 (1989), which is hereby incorporated by reference in its entirety), HO-1, HO-2 (Panahian et al., “Site of Injury-Directed Induction of Heme Oxygenase-1 and -2 in Experimental Spinal Cord Injury Differential Functions in Neuronal Defense Mechanisms?” J Neurochem 76:539-554 (2001), which is hereby incorporated by reference in its entirety), and cleaved caspase-3 (Cell Signaling, Beverly Mass.). The secondary antibody was horseradish peroxidase-conjugated goat anti-rabbit IgG (1:2,000, Bio-Rad).
Analysis of Apoptosis: The terminal deoxyribonucleotide transferase-mediated dUTP nick-end labeling (TUNEL) assay was used to detect in situ DNA fragmentation, using the In Situ Cell Death Detection Kit (Roche) as described previously (Ding et al., “Functional Role of Phosphodiesterase 3 in Cardiomyocyte Apoptosis: Implication in Heart Failure,” Circulation 111:2469-2476 (2005), which are hereby incorporated by reference in their entirety). In addition, the cells were stained for cardiomyocyte-specific sarcomeric α-actinin with the antibody EF-53 to distinguish cardiomyocytes from contaminating fibroblasts; and only EF-53 positive cells were counted. Three independent experiments were performed and an average of 1,000 EF-53 positive cells from random fields were analyzed.
DNA Electrophoresis: Total cellular DNA was isolated from untreated and treated cells by lysis in 10 mM Tris-HCl, pH 7.8; 1 mM, EDTA, 10 mM NaCl, 1% (w/v) SDS and 1 mg/ml proteinase K at 60° C. for 2 hours. The lysate was extracted twice each with phenol-choloroform (1:1, v/v) and chloroform, followed by precipitation with ethanol. The precipitate was collected by centrifugation, washed once in 70% ethanol, and resuspended in TE containing 1 mg/ml RNase at 37° C. for 30 min. DNA was resolved by electrophoresis in 2.0% agarose gels containing ethidium bromide.
It was noted that the level of cleaved caspase-3 protein, a marker for apoptosis, was increased by the inhibition of isoproterenol-induced expression of either BVR or HO-2 using siBVR or si-rHO-2, respectively (FIG. 6A). […] That apoptosis was occurring in cardiomyocytes, per se, was determined by triple staining of the cells with anti-α-actinin antibody to detect cardiomyocytes, TUNEL staining for cells undergoing apoptosis, and DAPI to detect nuclei (FIG. 6C). The merged images in FIG. 6C clearly indicate that the cardiomyocytes are undergoing apoptosis.

CC(C)C[C@@H](C=O)NC(=O)[C@H](CC(C)C)NC(=O)[C@H](CC(C)C)NC(=O)OCc1ccccc1 [MG132] (Cbz-Leu-Leu-Leu-aldehyde)
HO-2 protein level ([1]; BVR gene expression inhibited by si-BVR): increased the HO-2 protein levels | HO-2 protein level ([1]; absence of isoproterenol stimulation): increased

B1: rat biliverdin reductase (BVR), endogenous in perfused rat heart (protein)
chain: AEPKRKFGVVVVGVGRAGSVRLRDLKDPRSAAFLNLIGFVSRRELGSLDEVRQISLEDALRSQEIDVAYICSESSSHEDYIRQFLQAGKHVLVEYPMTLSFAAAQELWELAAQKGRVLHEEHVELLMEEFEFLRREVLGKELLKGSLRFTASPLEEERFGFPAFSGISRLTWLVSLFGELSLISATLEERKEDQYMKMTVQLETQNKGLLSWIEEKGPGLKRNRYVNFQFTSGSLEEVPSVGVNKNIFLKDQDIFVQKLLDQVSAEDLAAEKKRIMHCLGLASDIQKLCHQKK
BVR activity (rate of conversion of biliverdin to bilirubin at pH 6.7, NADH cofactor) in perfused rat heart [2]: peptide KKRILHC^281 blocked the activity of BVR, whether ISO was present or not | BVR activity (rate of conversion of biliverdin to bilirubin at pH 6.7, NADH cofactor) in perfused rat heart [3]: Treatment of the heart with peptide KYCCSRK^296 alone increased BVR activity

B2: si-rHO-2: retrovirus-expressed siRNA against rat HO-2 (SEQ ID NO:63, 64) (nucleic acid)
chain 1: GATCCCCGAAAACCATACCAAAATGGCATTCAAGAGATGCCATTTTGGTATGGTTTTCTTTTTGGAAA
chain 2: AGCTTTTCCAAAAAGAAAACCATACCAAAATGGCATCTCTTGAATGCCATTTTGGTATGGTTTTCGGG
modifications: the letters are possibly those of the target site
effect on isoproterenol-induced BVR protein expression [1]: no effect | effect on isoproterenol-induced HO-2 protein expression [1]: ablated | DNA fragmentation by electrophoresis of genomic DNA [4]: DNA fragmentation could be detected | number of cardiac apoptotic cells (TUNEL) [4]: increase | level of cleaved caspase-3 protein [4]: increased

B3: si-rBVR: retrovirus-expressed siRNA against rat BVR (SEQ ID NO:61, 62) (nucleic acid)
chain 1: GATCCCCTCTGCAGCATTCCTGAACCTGTTCAAGAGACAGGTTCAGGAATGCTGCAGATTTTTGGAAA
chain 2: AGCTTTTCCAAAAATCTGCAGCATTCCTGAACCTGTCTCTTGAACAGGTTCAGGAATGCTGCAGAGGG
modifications: the letters are possibly those of the target site
effect on isoproterenol-induced BVR protein expression [1]: efficiently blocked | effect on isoproterenol-induced HO-2 protein expression [1]: effectively blocked; also recorded: also blocked | DNA fragmentation by electrophoresis of genomic DNA [4]: DNA fragmentation could be detected | number of cardiac apoptotic cells (TUNEL) [4]: increase | level of cleaved caspase-3 protein [4]: increased

— patent US20100303790A1, “USE OF BILIVERDIN REDUCTASE (BVR) AND BVR PEPTIDE FRAGMENTS TO TREAT CORONARY DISORDERS” (UNIVERSITY OF ROCHESTER, priority 2009, published 2010)
